This test addresses β2AR-Rluc (human; Renilla reniformis) (UniProt P07550). The test can be described thus: BRET2, living HEK293T cells, Iso, untagged Gβ1γ2 co-expressed.

In turn, Gαs-GFP10 came in with an agonist-promoted increase in BRET of 68%.

These data come from patent publication US9029097.
